What all share (assay type): binding
Assay [1] in a line: Urea titration of emission intensity spectra (Nanodrop3300) with ratiometric analysis, singly labeled conjugates. From the text: (§1) Determination of emission intensity spectra.
(§2) Ratiometric analysis of urea binding. […] 2
(§3) For a single urea-binding site, the fractional saturation is given by
(§4) [formula] where [L] is the ligand (urea) concentration and Kd the dissociation constant, ^trueKd for ytrue.
(§5) [formula] where ^appIλ2 and ^satIλ2 are the emission intensities of the monochromatic signal at wavelength λ2 of the ligand-free and ligand-bound protein, respectively.

Assay [2] is described as follows: Temperature- and urea-dependent fluorescence landscapes of fluorescent conjugates (Roche LightCycler). The arrangement: key: y, yes; n, no. To be noted: Acrylodan conjugate; fluorescent response to urea. An outline of the steps: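 Acrylodan or Badan was attached to single-cysteine csUBP7 mutants and fluorescence was recorded over 0–4.8 M urea in 20 mM KCl, 20 mM MOPS (pH 7.4), with temperature stepped by 1K. Urea Kd came from ratiometric single-site fits, and Kd values across temperatures were fit to the Gibbs-Helmholtz equation.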

Assay [3] in a line: Urea titration of emission intensity spectra (Nanodrop3300) with ratiometric analysis, singly labeled conjugates. To be noted: urea response. The arrangement: key: m, monochromatic; d, dichromatic (i.e. spectral shape change).
From the text: as §1, §2, §3, §4, §5

Assay in assay [4]: as above
More on the design: key: m, monochromatic; d, dichromatic (i.e. spectral shape changes); 0, no change. To be noted: urea response.
From the text: as §1, §2, §3, §4, §5

[5] abbreviates: ctUBP6 Acrylodan conjugate, urea, nb = no binding, read-out: ^appKd.
[6] abbreviates: ctUBP6 Badan conjugate, urea, ^d = noisy data and or bad fit, read-out: ^appKd.
[7] abbreviates: ctUBP6 Badan conjugate, urea, ^d = noisy data and or bad fit, read-out: ^trueKd.
The mark [8] stands for this setting: ctUBP6 Acrylodan conjugate, urea, nb = no binding, read-out: ^trueKd.
Setting [9] is: ctUBP6 Acrylodan conjugate, urea, nb = no binding.

Here are results for six molecules from patent US11906524B2, “Urea biosensors and uses thereof” (Duke University, priority 2015, dated 2024).

Read-outs that look alike come from different tables or passages of the source.

B1: ctUBP6 T96C: ctUBP6 96C cysteine mutant (SEQ ID NO: 50), tested as Acrylodan and Badan conjugates (conjugate)
chain: MVEEPVDNKPGTDTSAEDTIKVGILHSLSGTMAISEVSLKDAELMAIEEINQAGGLLGKKIEPVIEDGASDWPTFAEKAKKLLQNDKVATVFGCWCSASRKAVLPVFEENNGLLWYPVQYEGMESSPNIFYTGAAPNQQIVPAVEWLLENKGKRFFLLGSDYVFPRTANKIIKAQLSAIGGELIAEEYTPLGHTDYSTIVNKIKTAKPDVVFNTLNGDSNVAFFKQLKDAGITSEDITVCSVSVAEEEIRGIGAENIKGHLVSWNYYQTTDTPENKEFVEKYKSKYGSDRVTDDPIEAAYIAVHLWAEAVKKAGSFEVEKVKEAAKGLEFKAPEGLVKIEGENQHLWKPVRIGEVQEDGLIKEIWSTSEAVRPDPYLKTYDWAKGLSDGGSHHHHHH
modifications: Acrylodan or Badan conjugate; ctUBP6_96C (96C substitution mutant with signal peptide replaced with M and a GGSHHHHHH at C-terminus)
For the molecule B1, the Kd in assay [1] (setting [5]) was 0.52 mM; in assay [1] (setting [6]), 0.62 mM; in assay [1] (setting [7]) it was 0.5 mM. The Response entry in assay [2] was “n”. Also, the Shape result in assay [3] (ctUBP6 Acrylodan conjugate) and in assay [3] (ctUBP6 Badan conjugate) was “d” throughout.

B2: ctUBP6 L191C: ctUBP6 191C cysteine mutant (SEQ ID NO: 54), tested as Acrylodan and Badan conjugates (conjugate)
chain: MVEEPVDNKPGTDTSAEDTIKVGILHSLSGTMAISEVSLKDAELMAIEEINQAGGLLGKKIEPVIEDGASDWPTFAEKAKKLLQNDKVATVFGCWTSASRKAVLPVFEENNGLLWYPVQYEGMESSPNIFYTGAAPNQQIVPAVEWLLENKGKRFFLLGSDYVFPRTANKIIKAQLSAIGGELIAEEYTPCGHTDYSTIVNKIKTAKPDVVFNTLNGDSNVAFFKQLKDAGITSEDITVCSVSVAEEEIRGIGAENIKGHLVSWNYYQTTDTPENKEFVEKYKSKYGSDRVTDDPIEAAYIAVHLWAEAVKKAGSFEVEKVKEAAKGLEFKAPEGLVKIEGENQHLWKPVRIGEVQEDGLIKEIWSTSEAVRPDPYLKTYDWAKGLSDGGSHHHHHH
modifications: Acrylodan or Badan conjugate; ctUBP6_191C (191C substitution mutant with signal peptide replaced with M and a GGSHHHHHH at C-terminus)
B2: the Shape result in assay [4] (ctUBP6 Acrylodan conjugate) and in assay [4] (ctUBP6 Badan conjugate) was “m” each time. In addition, the Kd is 0.15 mM in assay [1] (setting [5]), 0.11 mM in assay [1] (setting [8]), 0.31 mM in assay [1] (setting [6]) and 0.34 mM in assay [1] (setting [7]). Moreover, the Response result in assay [2] is listed as “y”.

B3: ctUBP6 W95C: ctUBP6 95C cysteine mutant (SEQ ID NO: 49), tested as Acrylodan and Badan conjugates (conjugate)
chain: MVEEPVDNKPGTDTSAEDTIKVGILHSLSGTMAISEVSLKDAELMAIEEINQAGGLLGKKIEPVIEDGASDWPTFAEKAKKLLQNDKVATVFGCCTSASRKAVLPVFEENNGLLWYPVQYEGMESSPNIFYTGAAPNQQIVPAVEWLLENKGKRFFLLGSDYVFPRTANKIIKAQLSAIGGELIAEEYTPLGHTDYSTIVNKIKTAKPDVVFNTLNGDSNVAFFKQLKDAGITSEDITVCSVSVAEEEIRGIGAENIKGHLVSWNYYQTTDTPENKEFVEKYKSKYGSDRVTDDPIEAAYIAVHLWAEAVKKAGSFEVEKVKEAAKGLEFKAPEGLVKIEGENQHLWKPVRIGEVQEDGLIKEIWSTSEAVRPDPYLKTYDWAKGLSDGGSHHHHHH
modifications: Acrylodan or Badan conjugate; ctUBP6_95C (95C substitution mutant with signal peptide replaced with M and a GGSHHHHHH at C-terminus)
On to B3, for which the Shape result in assay [4] (ctUBP6 Acrylodan conjugate) and in assay [4] (ctUBP6 Badan conjugate) was “m” each time. The Response entry in assay [2] was “y”.

B4: ctUBP6 A98C: ctUBP6 98C cysteine mutant (SEQ ID NO: 52), tested as Acrylodan and Badan conjugates (conjugate)
chain: MVEEPVDNKPGTDTSAEDTIKVGILHSLSGTMAISEVSLKDAELMAIEEINQAGGLLGKKIEPVIEDGASDWPTFAEKAKKLLQNDKVATVFGCWTSCSRKAVLPVFEENNGLLWYPVQYEGMESSPNIFYTGAAPNQQIVPAVEWLLENKGKRFFLLGSDYVFPRTANKIIKAQLSAIGGELIAEEYTPLGHTDYSTIVNKIKTAKPDVVFNTLNGDSNVAFFKQLKDAGITSEDITVCSVSVAEEEIRGIGAENIKGHLVSWNYYQTTDTPENKEFVEKYKSKYGSDRVTDDPIEAAYIAVHLWAEAVKKAGSFEVEKVKEAAKGLEFKAPEGLVKIEGENQHLWKPVRIGEVQEDGLIKEIWSTSEAVRPDPYLKTYDWAKGLSDGGSHHHHHH
modifications: Acrylodan or Badan conjugate; ctUBP6_98C (98C substitution mutant with signal peptide replaced with M and a GGSHHHHHH at C-terminus)
As for B4, the Shape result in assay [4] (ctUBP6 Acrylodan conjugate) is given as “m”. The Shape result in assay [4] (ctUBP6 Badan conjugate) was “m”. Further, in assay [1] (setting [9]), the “^appKd” value is given as “nb” and the “^trueKd” value is “nb”. Moreover, the Response result in assay [2] is listed as “y”.

B5: ctUBP6 S97C: ctUBP6 97C cysteine mutant (SEQ ID NO: 51), tested as Acrylodan and Badan conjugates (conjugate)
chain: MVEEPVDNKPGTDTSAEDTIKVGILHSLSGTMAISEVSLKDAELMAIEEINQAGGLLGKKIEPVIEDGASDWPTFAEKAKKLLQNDKVATVFGCWTCASRKAVLPVFEENNGLLWYPVQYEGMESSPNIFYTGAAPNQQIVPAVEWLLENKGKRFFLLGSDYVFPRTANKIIKAQLSAIGGELIAEEYTPLGHTDYSTIVNKIKTAKPDVVFNTLNGDSNVAFFKQLKDAGITSEDITVCSVSVAEEEIRGIGAENIKGHLVSWNYYQTTDTPENKEFVEKYKSKYGSDRVTDDPIEAAYIAVHLWAEAVKKAGSFEVEKVKEAAKGLEFKAPEGLVKIEGENQHLWKPVRIGEVQEDGLIKEIWSTSEAVRPDPYLKTYDWAKGLSDGGSHHHHHH
modifications: Acrylodan or Badan conjugate; ctUBP6_97C (97C substitution mutant with signal peptide replaced with M and a GGSHHHHHH at C-terminus)
On to B5, for which the Shape result in assay [4] (ctUBP6 Acrylodan conjugate) is “m”; in assay [1] (ctUBP6 Badan conjugate, urea response), “m/d”. Also, the Kd turned out to be 79 mM in assay [1] (setting [5]), 84 mM in assay [1] (setting [8]), 69 mM in assay [1] (setting [6]) and 95 mM in assay [1] (setting [7]). For the same molecule, in assay [2], the Response result is “n”.

B6: ctUBP6 F164C: ctUBP6 164C cysteine mutant (SEQ ID NO: 53), tested as Acrylodan and Badan conjugates (conjugate)
chain: MVEEPVDNKPGTDTSAEDTIKVGILHSLSGTMAISEVSLKDAELMAIEEINQAGGLLGKKIEPVIEDGASDWPTFAEKAKKLLQNDKVATVFGCWTSASRKAVLPVFEENNGLLWYPVQYEGMESSPNIFYTGAAPNQQIVPAVEWLLENKGKRFFLLGSDYVCPRTANKIIKAQLSAIGGELIAEEYTPLGHTDYSTIVNKIKTAKPDVVFNTLNGDSNVAFFKQLKDAGITSEDITVCSVSVAEEEIRGIGAENIKGHLVSWNYYQTTDTPENKEFVEKYKSKYGSDRVTDDPIEAAYIAVHLWAEAVKKAGSFEVEKVKEAAKGLEFKAPEGLVKIEGENQHLWKPVRIGEVQEDGLIKEIWSTSEAVRPDPYLKTYDWAKGLSDGGSHHHHHH
modifications: Acrylodan or Badan conjugate; ctUBP6_164C (164C substitution mutant with signal peptide replaced with M and a GGSHHHHHH at C-terminus)
Take B6: the Kd stood at 23 mM in assay [1] (setting [5]), 22 mM in assay [1] (setting [8]), 9.4 mM in assay [1] (setting [6]) and 11 mM in assay [1] (setting [7]). Further, the Response entry in assay [2] is on record as “y”. Besides, the Shape entry in assay [3] (ctUBP6 Acrylodan conjugate) and in assay [3] (ctUBP6 Badan conjugate) was “d” each time.
